# Results as given in patent US20200024330A1.
# Key:
# [1] = molecular target: JR-FL gp120 ΔV3 (HIV-1 (isolate JR-FL)); test: ELISA on coated gp120; EC50 by nonlinear regression
# [2] = molecular target: Env of the clade AE HIV-1 pseudoviruses of the cross-clade 162-pseudovirus panel (n = 10); test: cell-based or functional assay
# [3] = molecular target: HIV-1 93UG077 envelope glycoprotein (Env) (HIV-1); test: cell-based or functional assay
# [4] = molecular target: HIV-1 JRCSF envelope glycoprotein (Env) (HIV-1) (UniProt P20871); test: cell-based or functional assay
# [5] = molecular target: HIV-1 Env of isolate MGRM-A-005 (HIV-1); test: cell-based or functional assay
# [6] = molecular target: HIV-1 Env of isolate MGRM-AE-002 (HIV-1); test: cell-based or functional assay
# [7] = molecular target: HIV-1 Env of isolate MGRM-AE-003 (HIV-1); test: cell-based or functional assay
# [8] = molecular target: HIV-1 MGRM-A-010 envelope glycoprotein (Env) (HIV-1); test: cell-based or functional assay
# [9] = molecular target: HIV-1 MGRM-C-028 envelope glycoprotein (Env) (HIV-1); test: cell-based or functional assay
# [10] = molecular target: HIV-1 APV13 envelope glycoprotein (Env) (HIV-1); test: cell-based or functional assay
# [11] = molecular target: HIV-1 Env of isolate MGRM-A-003 (HIV-1); test: cell-based or functional assay
# [12] = molecular target: HIV-1 Env of isolate MGRM-A-001 (HIV-1); test: cell-based or functional assay
# [13] = molecular target: HIV-1 JRFL envelope glycoprotein (Env) (HIV-1); test: cell-based or functional assay
# [14] = molecular target: HIV-1 JR-CSF Env G324A (HIV-1 isolate JR-CSF) (UniProt P20871); test: cell-based or functional assay
# [15] = molecular target: HIV-1 Env of isolate MGRM-A-008 (HIV-1); test: cell-based or functional assay
# [16] = molecular target: HIV-1 Env of isolate 92WR021 (HIV-1); test: cell-based or functional assay
# [17] = molecular target: HIV-1 NL43 envelope glycoprotein (Env) (HIV-1); test: cell-based or functional assay
# [18] = molecular target: HIV-1 Env of isolate MGRM-A-014 (HIV-1); test: cell-based or functional assay
# [19] = molecular target: HIV-1 92BR020 envelope glycoprotein (Env) (HIV-1); test: cell-based or functional assay
# [20] = molecular target: HIV-1 Env of isolate MGRM-A-010 (HIV-1); test: cell-based or functional assay
# [21] = molecular target: HIV-1 Env of isolate MGRM-A-007 (HIV-1); test: cell-based or functional assay
# [22] = molecular target: HIV-1 Env of isolate MGRM-A-009 (HIV-1); test: cell-based or functional assay
# [23] = molecular target: HIV-1 Env of isolate 92UG037 (HIV-1); test: cell-based or functional assay
# [24] = molecular target: HIV-1 Env of isolate VLGCA1 (HIV-1); test: cell-based or functional assay
# [25] = molecular target: HIV-1 Env of isolate 92WR026 (HIV-1); test: cell-based or functional assay
# [26] = molecular target: HIV-1 Env of isolate MGRM-A-011 (HIV-1); test: cell-based or functional assay
# [27] = molecular target: HIV-1 MGRM-C-026 envelope glycoprotein (Env) (HIV-1); test: cell-based or functional assay
# [28] = molecular target: HIV-1 APV17 envelope glycoprotein (Env) (HIV-1); test: cell-based or functional assay
# [29] = molecular target: HIV-1 92RW020 envelope glycoprotein (Env) (HIV-1); test: cell-based or functional assay
# [30] = molecular target: HIV-1 Env of isolate 92WR009 (HIV-1); test: cell-based or functional assay
# [31] = molecular target: HIV-1 Env of isolate MGRM-A-004 (HIV-1); test: cell-based or functional assay
# [32] = molecular target: HIV-1 Env of isolate 94UG103 (HIV-1); test: cell-based or functional assay
# [33] = molecular target: HIV-1 94UG103 envelope glycoprotein (Env) (HIV-1); test: cell-based or functional assay
# [34] = molecular target: HIV-1 Env of isolate 94KE105 (HIV-1); test: cell-based or functional assay
# [35] = molecular target: HIV-1 Env of isolate MGRM-A-012 (HIV-1); test: cell-based or functional assay
# [36] = molecular target: HIV-1 Env of isolate MGRM-A-006 (HIV-1); test: cell-based or functional assay
# [37] = molecular target: HIV-1 Env of isolate 93UG077 (HIV-1); test: cell-based or functional assay
# [38] = molecular target: HIV-1 Env of isolate MGRM-A-013 (HIV-1); test: cell-based or functional assay
# [39] = molecular target: HIV-1 Env of isolate 93IN905 (HIV-1); test: cell-based or functional assay
binder,measurement,setting,value
"PGT-128 (antibody, V domains shown) VH: QPQLQESGPTLVEASETLSLTCAVSGDSTAACNSFWGWVRQPPGKGLEWVGSLSHCASYWNRGWTYHNPSLKSRLTLALDTPKNLVFLKLNSVTAADTATYYCARFGGEVLRYTDWPKPAWVDLWGRGTLVTVSS VL: QSALTQPPSASGSPGQSITISCTGTSNNFVSWYQQHAGKAPKLVIYDVNKRPSGVPDRFSGSKSGNTASLTVSGLQTDDEAVYYCGSLVGNWDVIFGGGTKLTVL",EC50,[1],7.8 µg/mL
same,Median IC50 against viruses neutralized with an IC50 <50 µg/ml,[2],0.05 µg/mL
"PGT-125 (antibody, V domains shown) VH: QSQLQESGPRLVEASETLSLTCNVSGESTGACTYFWGWVRQAPGKGLEWIGSLSHCQSFWGSGWTFHNPSLKSRLTISLDTPKNQVFLKLTSLTAADTATYYCARFDGEVLVYNHWPKPAWVDLWGRGIPVTVSS VL: QSALTQPPSASGSPGQSITISCNGTATNFVSWYQQFPDKAPKLIIFGVDKRPPGVPDRFSGSRSGTTASLTVSRLQTDDEAVYYCGSLVGNWDVIFGGGTTLTVL",IC50 neutralization,[3],0.0262 µg/mL
same,IC50 neutralization,[4],0.006 µg/mL
same,"IC50 (µg/mL), pseudovirus neutralization",[5],> 50 µg/mL
same,"IC50 (µg/mL), pseudovirus neutralization",[6],> 50 µg/mL
same,"IC50 (µg/mL), pseudovirus neutralization",[7],0.092 µg/mL
same,Median IC50 against viruses neutralized with an IC50 <50 µg/ml,[2],0.03 µg/mL
same,IC50 neutralization,[8],0.0055 µg/mL
same,IC50 neutralization,[9],5.78 µg/mL
same,IC50 neutralization,[10],0.0128 µg/mL
same,"IC50 (µg/mL), pseudovirus neutralization",[11],> 50 µg/mL
same,"IC50 (µg/mL), pseudovirus neutralization",[12],12.4 µg/mL
same,IC50 neutralization,[13],0.0156 µg/mL
same,Fold IC50 increase relative to wild-type,[14],1.7 fold
same,"IC50 (µg/mL), pseudovirus neutralization",[15],> 50 µg/mL
same,"IC50 (µg/mL), pseudovirus neutralization",[16],0.005 µg/mL
same,IC50 neutralization,[17],> 10 µg/mL
same,"IC50 (µg/mL), pseudovirus neutralization",[18],13.9 µg/mL
same,IC50 neutralization,[19],0.0214 µg/mL
same,"IC50 (µg/mL), pseudovirus neutralization",[20],0.004 µg/mL
same,"IC50 (µg/mL), pseudovirus neutralization",[21],> 50 µg/mL
same,"IC50 (µg/mL), pseudovirus neutralization",[22],0.009 µg/mL
same,"IC50 (µg/mL), pseudovirus neutralization",[23],0.005 µg/mL
same,"IC50 (µg/mL), pseudovirus neutralization",[24],0.078 µg/mL
same,"IC50 (µg/mL), pseudovirus neutralization",[25],0.007 µg/mL
same,"IC50 (µg/mL), pseudovirus neutralization",[26],> 50 µg/mL
same,IC50 neutralization,[27],0.0106 µg/mL
same,IC50 neutralization,[28],7.31 µg/mL
same,IC50 neutralization,[29],0.0028 µg/mL
same,"IC50 (µg/mL), pseudovirus neutralization",[30],0.144 µg/mL
same,"IC50 (µg/mL), pseudovirus neutralization",[31],> 50 µg/mL
same,"IC50 (µg/mL), pseudovirus neutralization",[32],0.008 µg/mL
same,IC50 neutralization,[33],0.0124 µg/mL
same,"IC50 (µg/mL), pseudovirus neutralization",[34],0.004 µg/mL
same,"IC50 (µg/mL), pseudovirus neutralization",[35],0.177 µg/mL
same,"IC50 (µg/mL), pseudovirus neutralization",[36],> 50 µg/mL
same,"IC50 (µg/mL), pseudovirus neutralization",[37],0.012 µg/mL
same,"IC50 (µg/mL), pseudovirus neutralization",[38],0.014 µg/mL
"PGT-135 (antibody, V domains shown) VH: QLQMQESGPGLVKPSETLSLSCTVSGDSIRGGEWGDKDYHWGWVRHSAGKGLEWIGSIHWRGTTHYKESLRRRVSMSIDTSRNWFSLRLASVTAADTAVYFCARHRHHDVFMLVPIAGWFDVWGPGVQVTVSS VL: EIVMTQSPDTLSVSPGETVTLSCRASQNINKNLAWYQYKPGQSPRLVIFETYSKIAAFPARFVASGSGTEFTLTINNMQSEDVAVYYCQQYEEWPRTFGQGTKVDIK",EC50,[1],0.2 µg/mL
same,IC50 neutralization,[3],> 10 µg/mL
same,IC50 neutralization,[4],0.113 µg/mL
same,IC50 neutralization,[8],> 10 µg/mL
same,IC50 neutralization,[9],2.16 µg/mL
same,IC50 neutralization,[10],0.545 µg/mL
same,IC50 neutralization,[13],> 10 µg/mL
same,Fold IC50 increase relative to wild-type,[14],0.4 fold
same,IC50 neutralization,[17],6.79 µg/mL
same,IC50 neutralization,[19],0.104 µg/mL
same,IC50 neutralization,[27],0.0123 µg/mL
same,IC50 neutralization,[28],> 10 µg/mL
same,IC50 neutralization,[29],0.157 µg/mL
same,IC50 neutralization,[33],> 10 µg/mL
same,Primary Neutralization Index (B cell culture well 5343 B8),[39],43
same,Primary Neutralization Index (B cell culture well 5344 E16),[39],2.3
